US11753479B2, “Nucleic acids encoding anti-OX40L antibodies” (Kymab Limited, priority 2014, dated 2023)

T1: hOX40L expressed on CHO-S cells (Homo sapiens, UniProt P23510)
T1 construct: expressed in transfected cells
T1 sequence (P23510 1-183): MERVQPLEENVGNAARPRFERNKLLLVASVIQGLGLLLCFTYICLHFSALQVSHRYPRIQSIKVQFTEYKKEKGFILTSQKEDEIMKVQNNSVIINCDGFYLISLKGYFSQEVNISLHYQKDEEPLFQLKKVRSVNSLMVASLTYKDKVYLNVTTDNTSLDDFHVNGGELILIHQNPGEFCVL

B1: 2D10 (hybridoma): murine/human chimeric anti-OX40L antibody 2D10 purified from hybridoma supernatant (antibody, V domains shown)
VH: EVQLVESGGGLVQPGGSLRLSCAASGFTFSNYAMNWVRQAPGKGLEWVSTISGSGGATRYADSVKGRFTISRDNSRNTVYLQMNSLRVEDTAVFYCTKDRLIMATVRGPYYYGMDVWGQGTTVTVSS
VL: DIQMTQSPSSLSASVGDRVTITCRASQSISSYLNWYQQKPGKAPNLLIYAASSLQSGVPSRFSGSGSETDFTLTISSLQPEDFATYYCQQSHSVSFTFGPGTKVDIK
B2: 10A07 (hybridoma): murine/human chimeric anti-OX40L antibody 10A07 purified from hybridoma supernatant (antibody, V domains shown)
VH: EVQLVESGGVLVQPGGSLRLSCAASGFTFSSYIMTWVRQAPGKGLEWVSGISGSGGGTYYADSMKGRFTISRDNSKNTLYLQMNSLRVEDTAVYYCAKDRLGPITLVRGGYYYGMDVWGQGTTVTVSS
VL: DIQMTQSPSSLSASVGDRVTITCRASQSISDYLNWYQQKPGKAPKFLIYAASSLQSGVPSRFSGSGSGTDFTLTVSSLQPEDFATYYCQQSYSTPRTFGQGTRVEIK
B3: 9H04 (hybridoma): murine/human chimeric anti-OX40L antibody purified from hybridoma supernatant (protein, listed as Homo Sapiens)
chain: QVQLVESGGGLVKPGGSLRLSCAASRFTLSDYYMTWIRQAPGKGLEWVSYISSSGNTIYYADSVKGRFTISRDNAKNSLYLQMNSLRAEDTAVYYCARDLSGSYWDYYYGMDVWGQGTTVTVSS
modifications: VH only; VL and constant regions missing
notes: murine/human chimeric anti-OX40L antibody purified from hybridoma supernatant

Target: T1, hOX40L expressed on CHO-S cells
Test: Binding to CHO-S expressed hOX40L (FACS)
Details: binding to CHO-S expressed hOX40L by FACS
Procedure: To determine whether wells selected using the primary screen selection criteria had the required characteristics set by the inventors, a number of assays were performed. Hybridoma clones selected as hits from primary screening were cultured for 3 days and the supernatants collected from hybridoma cells were tested to assess whether the secreted antibodies that bind to CHO-S expressed hOX40L, in some case bind to untransfected CHO-S cells and whether they neutralise recombinant OX40R Fc binding to CHO-S hOX40L and ability to neutralise OX40R binding to recombinant biotinylated hOX40L.
CHO-S cells expressing hOX40L or untransfected CHO-S cells, diluted in FACS buffer (PBS+1% w/v BSA+0.1% w/v NaN3) were distributed to a 96 well V-bottom plate (Greiner) at a density of 1×10^5 cells per well. Cells were washed with 150 μL of PBS and centrifuged at 300×g for 3 min. Supernatant was aspirated and 150 μL of PBS added. This wash step was repeated.
25 μL of hybridoma supernatant or purified antibody from hybridoma supernatant diluted in FACS buffer was added to the washed cells and incubated for 10-15 minutes. Reference Antibody or mouse IgG1 control antibody (Sigma) were diluted in FACS buffer to 20 μg/mL and 25 μL added to cells. 25 μL of human OX40R Fc (in-house) diluted to 1000 ng/mL in FACS buffer were then added to wells. Cells were incubated at 4° C. for 30 minutes.
Cells were washed twice with 150 μL of PBS centrifuging after each wash step and aspirating supernatant (centrifuged at 300×g for 3 minutes). […]
To fix cells 100 μL 2% v/v paraformaldehyde was added and cells incubated for 30 minutes at 4° C., cells were pelleted by centrifugation 300×g and the plates and resuspended in 50 μL of FACS buffer. PE and APC signal intensity (geomean) was measured by flow cytometry using a BD FACS Array instrument.
% of control binding was calculated using geomean fluorescence as described in equation 1 where total binding was defined as reference antibody at 10 μg/mL and non-specific binding as mouse IgG1 antibody at 10 μg/mL. % receptor binding was calculated using Equation 3. […]

Row | FACS Binding | Molecule
1 | YES | B1
2 | YES | B2
3 | YES | B3
